Test results from article PMC4191399.
Changes are numbered by the printed parent chain.

Assays:
[1] = biological target: T1, RIG-I Q784A/K788A Q784A;K788A (Homo sapiens) (UniProt O95786); experiment: fluorescence polarization; settings: internal 6-carboxyfluorescein in backbone between U12 and C13 (central tetraloop bases); 25 mM MOPS pH 7.4, 150 mM KCl, 2 mM DTT, 2 mM MgCl2, 0.01% Triton X-100, 1 nM RNA, room temperature, 1 h
T1 sequence: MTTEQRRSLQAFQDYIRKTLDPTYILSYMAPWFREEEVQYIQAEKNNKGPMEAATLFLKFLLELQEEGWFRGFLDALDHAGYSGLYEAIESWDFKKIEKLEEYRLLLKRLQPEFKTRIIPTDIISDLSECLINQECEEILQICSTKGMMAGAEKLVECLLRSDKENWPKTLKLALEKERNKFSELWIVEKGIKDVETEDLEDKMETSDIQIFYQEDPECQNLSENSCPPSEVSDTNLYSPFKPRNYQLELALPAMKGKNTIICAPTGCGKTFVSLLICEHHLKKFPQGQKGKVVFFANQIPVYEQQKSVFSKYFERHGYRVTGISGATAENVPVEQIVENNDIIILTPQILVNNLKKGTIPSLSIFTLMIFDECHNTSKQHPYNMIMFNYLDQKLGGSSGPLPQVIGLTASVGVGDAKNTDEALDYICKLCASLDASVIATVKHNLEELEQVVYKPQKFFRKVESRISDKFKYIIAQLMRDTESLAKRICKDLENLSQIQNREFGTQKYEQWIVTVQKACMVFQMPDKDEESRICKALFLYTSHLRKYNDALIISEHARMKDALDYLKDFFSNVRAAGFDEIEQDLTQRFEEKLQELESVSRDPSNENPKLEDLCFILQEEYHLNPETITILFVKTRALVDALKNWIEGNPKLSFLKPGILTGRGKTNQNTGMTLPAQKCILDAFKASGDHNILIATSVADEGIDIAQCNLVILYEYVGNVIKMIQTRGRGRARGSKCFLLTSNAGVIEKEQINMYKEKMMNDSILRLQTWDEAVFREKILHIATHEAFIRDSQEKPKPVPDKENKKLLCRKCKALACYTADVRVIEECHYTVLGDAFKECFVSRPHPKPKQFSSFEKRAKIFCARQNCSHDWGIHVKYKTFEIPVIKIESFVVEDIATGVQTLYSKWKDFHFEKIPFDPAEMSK

[2] = biological target: T2, RIG-I Q784A/K788A/R791A Q784A;K788A;R791A (Homo sapiens) (UniProt O95786); experiment: fluorescence polarization; settings: internal 6-carboxyfluorescein in backbone between U12 and C13 (central tetraloop bases); 25 mM MOPS pH 7.4, 150 mM KCl, 2 mM DTT, 2 mM MgCl2, 0.01% Triton X-100, 1 nM RNA, room temperature, 1 h
T2 sequence: T1 sequence with R791A

GGACGUACGUUUCGACGUACGUCC [5'OH10L-F]
Kd [1]: 85.8 nM
Kd [2]: 172 nM
